Our source for the self-cleavage values is the RNAGym collection of RNA variant scans (doi:10.7554/elife.90254).

First the molecules themselves.
B1: OR4K15 (parent)
chain: GUUAACGGUCAUAGGCCAUGGAAACUAGGAGCACCAUUUCGCUGCCAGUGAAGAAAUGAACAAAGAAAAUCUGGGCCAGGCAGGCAUCAAAAGAAAUAGUCUUGCGCUCAACCAGAAAGUCUGUAAUCAUUUUAAGGGUA

The series covers variants of B1. The series can be described thus: self-cleavage, relative activity (ratio to wild type); higher = more cleavage; in vitro, sequencing; the parent is a self-cleaving ribozyme.
Consider GUUAACGGUCAUAGGCCAUGGAAACUAGGAGCACCAUUUCGCCGCCAGUGAAGAAAUGAACAAAGAAAAUCUGGGCCAGGCAGGCAUCAAAAGAAAUAGUCUUGCGCUCAACCAGAAAGUCUGUAAUCAUUUUAAGGGUG, for which the self-cleavage was found to be 1.95. For GUUAACGGUCAUAGGCCAUGGAAACUAGGAGCACCAUUUCGCUGCCAGUGAAGAAAUGAACAAAGAAAGUCUGGGCCAGGCAGGCAACAAAAGAAAUAGUCUUGCGCUCAACCAGAAAGUCUGUAAUCAUUUUAAGGGUA, the self-cleavage is 1.29.

Consider GUUAACGGUCAUAGGCCAUGGAAACUAGGAGCGCCAUUUCGCUGCCAGUGAAGAAAUGAACAAAGAAAAUCUGGGCCAGGCAGGCAUCAAAAGAAAUAGUCUUGCGCUCAACCAGAUAGUCUGUAAUCAUUUUAAGGGUA, for which the self-cleavage came to 0.74. For GUCAACGGUCAUAGGCCAUGGAAACUAGGAGCACCAUUUCGCUGCCAGUGAAGAAAUGAACAAAGAAAAUCUGGGCCAGGCAGGCAUCAAAAGAAAUAGUCUUGCGCUCAACCAGAAAGUCUGUAACCAUUUUAAGGGUA, the self-cleavage stood at 1.79. Consider GUUAACGGUCAUAGGCCAUGGAAACUAGGAGCACCCUUUCGCUGCCAGUGUAGAAAUGAACAAAGAAAAUCUGGGCCAGGCAGGCAUCAAAAGAAAUAGUCUUGCGCUCAACCAGAAAGUCUGUAAUCAUUUUAAGGGUA, for which the self-cleavage is 2.34. With GUUAACGGUCAUAGGCCAUGGAAACUAGGAGCACCAUUUCGCUGCCAGUGUAGAAAUGAACAAAGAAAAUCUGGGCCAGGCAGGCAUCAAAAGAAAUAGUCUUGCGCUCAACCAGAAAGUCUGUAAUCAUAUUAAGGGUA the figure was 1.32. Under GUUAACGGUCAUAGGCCAUGGAAACUAGGAGCACCAUUUCGCUGCCUGUGAAGAAAUGAACAAAGAAAAUCUGGGCCAGGCAGGCAUCAAAAGAAAUAGUCUUGCGCUCAACCAGAAGGUCUGUAAUCAUUUUAAGGGUA stands 0.76. As to GUUAACGGUCGUAGGCCAUGGAAACUAGGAGCACCAUUUCGCUGCCAGUGAAGAAAUGAACAAAGAAAAUCUGGGCCAGGCAGGCAUCAAAAGAAAUAGUCUUGCGCUCAACCAGAAAGUCUGUAAUCAUUUUAAGGGUU, the self-cleavage came out at 1.31. Take GUUAACGGUCAUAGGCCAUGGAAACUAGGAGCACCAUUUCGCUGCCAGUGAAGAAAUGAACAAAGAAAAACUGGGCCAGGCAGGCAUCAAAAGAAAUAGUCUUGCGCUCGACCAGAAAGUCUGUAAUCAUUUUAAGGGUA: the self-cleavage was 0.1. Under GUUAACGGUCAUAGGCCAUGGAAACUAGGAGCACCAUUUCGCUGCCAGUGAAGAAAUGAACGAAGAAAAUCUGGGCCAGGCAGGCAUCAAAAGAAAUAGUCUUGCGCUCAACCAGAAAGUCUGUAAUCAUUUAAAGGGUA stands 1.51; under GUUAACGGUCAUAGGCCAUGGAAACUAGGAGCACCAUUUCGCUGCCAGUGAAGAAAUGAACAAAGUAAAUCUGGGCCAGGCAGGCAUCAAAAGAAAUAGUCUUGCGCUCAACCAGAAAGUCUGUAGUCAUUUUAAGGGUA, 1.05.

Regarding GUUAACGGUCAUAGGCCAUGGAAACUAGGAGCACCAUUUCGCUGCCAGUGAAGAAAUGAACAAAGAAAAUCUGGGCCUGGCAGGCAUCAAAAGAAAUAGUCUUGCGCACAACCAGAAAGUCUGUAAUCAUUUUAAGGGUA, the self-cleavage is 0.01. GUUAACGGUCAUAGGCCAUGGAAACUAGGAGCACCAUGUCGCUGCCAGUGAAGAAAUGAACAAAGAAAAUCUGGGCCAGGCAGGCUUCAAAAGAAAUAGUCUUGCGCUCAACCAGAAAGUCUGUAAUCAUUUUAAGGGUA: the self-cleavage is 1.6. Under GUUAACGGUCAUAGGCUAUGGAAACUAGGAGCACCAUUUCGCUGCCAGUGAAGAAAUGAACAAAGAAAAUCUGGGCCAGGCAGGCAUCAAGAGAAAUAGUCUUGCGCUCAACCAGAAAGUCUGUAAUCAUUUUAAGGGUA stands 0.42; under GUUAACGGUCAUAGGCCAUGGAAACUAGGAGCACCAUUUCUCUGCCAGUGAAGAAAUGAACAAAGAAAAUCUGGGCCAGGCAGGCAUCAAAAGAAAUAGUCUUGCGCUCAACCAGAAAGUCUGUAAUCAUUUUAAGGGUA, 1.74; under GUUAACGGUCAUAGGCCAUGGAAACUAGGAGCACCAUUUCGCUGCCAGUGAAGAAAUGAACAAAGAAAAUCUGGGCCAGGCAGACAUCAAAAGAAAUAGUCAUGCGCUCAACCAGAAAGUCUGUAAUCAUUUUAAGGGUA, 2.02. Under GUUAACGGUCAUAGGCCAUGGAAACUAGGAGCACCAUUUCGCUGCCAGUGAAGAAAUGAACAAAGAAGAUCUGGGCCAGGCAGGCAUCUAAAGAAAUAGUCUUGCGCUCAACCAGAAAGUCUGUAAUCAUUUUAAGGGUA stands 2.23; under GUUAACGGUCAUAUGCCAUGGAAACUAGGAGCACCAUUUCGCUGCCAGUGAAGAAAUGAACAAAGAAAAUCUGGGCCAGGCAGGCAUCAAAAGAAUUAGUCUUGCGCUCAACCAGAAAGUCUGUAAUCAUUUUAAGGGUA, 1.13. Under GUUAACGGUCAUAGGCCAUGGAAACUAGGAGCACCAUUUCGCUGCCAGUGAAGAAAUGAACAAAGAAAAUCUGGGCCAGGCAGGCAUCAAAAGAAAUAGUCUCGCGCUCAACCAGAAAGUCUGUGAUCAUUUUAAGGGUA stands 0.69. As for GUUAACGGUCAUAGGCCAUGGAAACUAGGAGCACCAUUUCGCUGCCAGCGAAGAAAUGAACAAAGAAAAUCUGGGCCAGGCAGGCAUCAAAAGAAAUAGUCUUGCGCUCAACCAGAAUGUCUGUAAUCAUUUUAAGGGUA, the self-cleavage came out at 0.62. In the case of GUUAACGGUCAUAGGCCAUGGAAACUAGGAGCACCACUACGCUGCCAGUGAAGAAAUGAACAAAGAAAAUCUGGGCCAGGCAGGCAUCAAAAGAAAUAGUCUUGCGCUCAACCAGAAAGUCUGUAAUCAUUUUAAGGGUA, the self-cleavage came to 1.55. Under GUUAACGGUCAUAGGCCAUGGAAACUAGGAGCACCAUUUCGCUGCCAGUGAGGAAAUGAACAAAGAAAAUCUGGGCCAGGCAGGCAUCAAAAGAAAUAGUCUUGCGCUUAACCAGAAAGUCUGUAAUCAUUUUAAGGGUA stands 0.71. With GUUAACGGUCAUAGGCCAUGGAGACUAGGAGCACCAUUUCGCUGCCAGUGAAGAAAUGAACUAAGAAAAUCUGGGCCAGGCAGGCAUCAAAAGAAAUAGUCUUGCGCUCAACCAGAAAGUCUGUAAUCAUUUUAAGGGUA the figure was 1.09; with GUUAACGGUCAUAGGCCAUGGAAACUAGGAGCACCAUUUCGCUGCCAGUGAAGAAAUGAACAAAGAAAAUCUGGCCCAGGCAGGCAUCAAAAGAAACAGUCUUGCGCUCAACCAGAAAGUCUGUAAUCAUUUUAAGGGUA, 0.12. Under GUUAACGGUCAUAGGCCAUGGAAACUAGGAUCACCAUUUCGCUGCCGGUGAAGAAAUGAACAAAGAAAAUCUGGGCCAGGCAGGCAUCAAAAGAAAUAGUCUUGCGCUCAACCAGAAAGUCUGUAAUCAUUUUAAGGGUA stands 1.05; under GUUAACGGUCAUAGGCCAUGGAAACUAGGAGCACCAUUUCGCUGCCAGUGAAGAAAUGAACAAAGAAAAUCUGGGCCAGGCAGGCAUCAAACGAAAUAGUCUUGCGCUCAACCAGAAAGUCUGUAAUCAUUUUAAGGGUA, 1.27. On to GUUAACGGUCAUAGGCCAUGGAAACUAGGAGCACCAUUUCGCUGCCAGUGAAGAAAUGAACAAAGAAAAUCUGGGCCAGGCAGGCAUCAAAAGAAAUAGUCUUGCGCUCAACCAGAAAGUCUGUAACCAUUUUUAGGGUA, for which the self-cleavage turned out to be 1.36.

For GUUAACGGUCAUAGGCCAUGGAAACUAGGAGCACCAUUUCGCUGCCAGUGAAGAAAUGAACAAAGAAAAUCUGGGCCAGGCAGGCAUCAAGAGAAAUAGUCUUGCGCUCAACCAGAAAGUCUGUAAACAUUUUAAGGGUA, the self-cleavage is 2.67. Consider GUUAACGGUCAUAGGCCAUGGAAACUGGGAGCACCAUUUCGCUGCCAGUGAAGAAAUGAACAAAGAAAAUCUGGGCCAGGCAGGCGUCAAAAGAAAUAGUCUUGCGCUCAACCAGAAAGUCUGUAAUCAUUUUAAGGGUA, for which the self-cleavage was found to be 1.4. Under GCUAACGGUCAUAGGCCAUGGAAACAAGGAGCACCAUUUCGCUGCCAGUGAAGAAAUGAACAAAGAAAAUCUGGGCCAGGCAGGCAUCAAAAGAAAUAGUCUUGCGCUCAACCAGAAAGUCUGUAAUCAUUUUAAGGGUA stands 0.37; under GUUAACGGUCAUAGGCCACGGAAACUAGGAGCACCAUUUCGCUGCCAGUGAAGAAAUGAACAAAGAAAAUCUGGGCCAGGCAGGCAUCAAAAGAAAUAGUCCUGCGCUCAACCAGAAAGUCUGUAAUCAUUUUAAGGGUA, 2.32; under GUUAACGGUCAUAGGCCACGGAAACUAGGAGCACCAUUUCGCUGCCAGUGAAGAAAUGAACAAAGAAAAUCUGGGCCAGGCAGGCAUCAAAAGAAAUAGUCUUGCGCUCAACCUGAAAGUCUGUAAUCAUUUUAAGGGUA, 0.11. Consider GUUAACGGUCAUAGGCCAUGGAAACUAGGAGCACCAUUUCGCUGCCAGUGAAGAAAUGAACAAAGAAAAUCUGGGCCAGGAAGGCAUCAGAAGAAAUAGUCUUGCGCUCAACCAGAAAGUCUGUAAUCAUUUUAAGGGUA, for which the self-cleavage amounted to 0.07. Under GUUAACGGUCAUAGGCCCUGGAAACUAGGAGCACCAUUUCGCUGCCAGUGAAGAAAUGAACAAAGAAAAUCUGGGCCAGGCAGGCACCAAAAGAAAUAGUCUUGCGCUCAACCAGAAAGUCUGUAAUCAUUUUAAGGGUA stands 0.67; under GUUAACGGUCAUAUGCCAUGGAAACUAGGAGCACCAUUUCGCUGCCAGUGAAGAAAUGAACAGAGAAAAUCUGGGCCAGGCAGGCAUCAAAAGAAAUAGUCUUGCGCUCAACCAGAAAGUCUGUAAUCAUUUUAAGGGUA, 1.14; under GUUAACGGUCAUAGGCCAUGGAAACUAGGAGCACCAUUUCGCUGCCAGUGAAGAAACGAACAAAGAAAAUCUGGGUCAGGCAGGCAUCAAAAGAAAUAGUCUUGCGCUCAACCAGAAAGUCUGUAAUCAUUUUAAGGGUA, 0.13. In the case of GUUAACAGUCAUAGGCCAUGGAAACUAGGAGCACCAUUUCGCUGCCAGUGAAGAAAUGAACAAAGAAAAUCUGGGCCAGGCAGGCAUCAAAAGAAAUAGUCUUGCGCUCCACCAGAAAGUCUGUAAUCAUUUUAAGGGUA, the self-cleavage stood at 0.23. Under GUUGACGGUCAUAGGCCAUGGAAACUAGGAGCACCAUUUCGCUGCCAGUGAAGAAGUGAACAAAGAAAAUCUGGGCCAGGCAGGCAUCAAAAGAAAUAGUCUUGCGCUCAACCAGAAAGUCUGUAAUCAUUUUAAGGGUA stands 1.02; under GUUAACGGUCAUAGGCCAUGGAAACUAGGAGCACCAUUUCGCUGCCAGUGAAGAAAUGAACAAAGAAAAUCUGGGCCAGGCAGGCAUCGAAAGAAAUAGUCUUGCGCUCGACCAGAAAGUCUGUAAUCAUUUUAAGGGUA, 0.12; under GUUAACGGUCAUAGGCCAGGGAAACUAGGAGCACCAUUUCGCUGCCAGUGAAGAAAUGAACAAAGAAAAUCUGGGCCAGGCAGGCAUCAAAAGAAAUAGUCUUGCGCUCAACCAGAAAGUCUGUAAUCAUUUUAAGGGUG, 1.51. In the case of GUUAACGGUCAUAGGCCAUGGAAACUAGGAGCACCAUUUCGCUGCCAGUGAAGAAAUGAACAAAGGAAAUCUGGGCCAGGCAGGCAUCAAAAGAAAAAGUCUUGCGCUCAACCAGAAAGUCUGUAAUCAUUUUAAGGGUA, the self-cleavage came out at 2.11.
